Where “and” joins values, the source holds several entries; their conditions need not be identical. Equal entries are not always repeated.
B1: Humanized HIS029 (antibody, V domains shown)
VH: QVQLVQSGSELKKPGASVKVSCKASGYTFTNYWINWVRQAPGQGLEWMGNIYPSDSYTNYNQKFKDRAVFSVDKSVSTAYLQISSLKAEDTAVYYCTKWGDSDYWGQGTTVTVSS
VL: DIQMTQSPSSLSASVGDRVTITCKASQDINRYLRWFQQKPGKSPKTLIYRANRLVDGVPSRFSGSGSGQDYTLTISSLQPEDFATYYCLQYDEFPFTFGQGTKLEIK
notes: also called humanized HIS029 antibody
B2: HIS029-vc-MMAE (other)
VH: QVHLQQPGAELVRPGASVKLSCKASGYTFTNYWINWVKQRPGQGLEWIGNIYPSDSYTNYNQKFKDKATLTVDKSSSTAYVHLSSPTSEDSAVYYCTKWGDSDYWGQGTTLTVSS
VL: DIKMTQSPSSMYASLGERVTITCKASQDINRYLRWFQQKPGKSPKTLIYRANRLVDGVPSRFSGSGSGQDYSLTISSLEYEDMGIYYCLQYDEFPFTFGSGTKLEIK
modifications: monomethyl auristatin E coupled through a maleimidocaproyl-Val-Cit-PAB linker by a thiol-based reaction; sites not stated
B3: HIS029 (antibody, V domains shown)
VH: B2 VH
VL: B2 VL
notes: Monoclonal antibody from a hybridoma, V regions amplified with mouse Ig primers; also called anti-CD44 v7/8 antibody; antibody clone HIS029

Tests used:
[1] = target: T1, CD44 v7/8 (human CD44 v7/8 splice variant) on CD44+ cells (human, UniProt P16070 21-742); assay: flow cytometry on A253 cells; humanized HIS029, A253 cells
T1 construct: Endogenous protein on tumour cell lines (D562, A253, NCI-H520, BXPC3); no signal peptide limits are stated; also called CD44 variant 7/8; HCAM
T1 sequence (P16070 21-742 limits assumed, change not shown): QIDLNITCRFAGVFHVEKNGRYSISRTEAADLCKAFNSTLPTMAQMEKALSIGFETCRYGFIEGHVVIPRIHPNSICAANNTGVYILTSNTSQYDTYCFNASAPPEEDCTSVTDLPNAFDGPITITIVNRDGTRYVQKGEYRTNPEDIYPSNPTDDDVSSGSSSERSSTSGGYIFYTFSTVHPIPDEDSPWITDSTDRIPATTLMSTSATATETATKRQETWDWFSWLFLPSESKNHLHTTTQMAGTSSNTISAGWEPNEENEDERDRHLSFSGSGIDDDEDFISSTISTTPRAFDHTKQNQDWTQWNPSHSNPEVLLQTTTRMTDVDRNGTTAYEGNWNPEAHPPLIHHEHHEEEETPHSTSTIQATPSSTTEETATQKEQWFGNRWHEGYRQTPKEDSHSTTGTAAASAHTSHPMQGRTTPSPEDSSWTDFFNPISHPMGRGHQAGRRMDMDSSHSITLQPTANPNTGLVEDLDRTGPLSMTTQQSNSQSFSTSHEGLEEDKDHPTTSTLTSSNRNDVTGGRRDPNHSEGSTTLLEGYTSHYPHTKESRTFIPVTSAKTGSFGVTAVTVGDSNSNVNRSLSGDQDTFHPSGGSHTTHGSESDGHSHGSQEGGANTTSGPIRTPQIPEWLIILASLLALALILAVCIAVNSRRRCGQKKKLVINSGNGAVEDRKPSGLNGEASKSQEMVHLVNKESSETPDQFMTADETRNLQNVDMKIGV

[2] = target: T1, CD44 v7/8 (human CD44 v7/8 splice …); assay: flow cytometry on CD44+ A253 cells, antibody titration
[3] = target: T1, CD44 v7/8 (human CD44 v7/8 splice …); assay: cell-based or functional assay
[4] = target: T1, CD44 v7/8 (human CD44 v7/8 splice …); assay: flow cytometry on A253 cells; HIS029 (parental antibody), A253 cells

Binder | Kd [1] [nM] | EC50 (read off the curve) [2] | cell viability, IC50 (A253 cells) [3] [nM] | cell viability, IC50 (BXPC3 cells) [3] [nM] | cell viability, IC50 (D562 cells) [3] [nM] | cell viability, IC50 (NCI-H520 cells) [3] [nM] | Kd [4] [nM]
B1 | 36 | ~40 nM and ~60 nM |  |  |  |  | 
B2 |  |  | 0.797 | 0.189 | 0.63 | 0.588 | 
B3 |  | ~40 nM |  |  |  |  | 35

From patent publication US20220049008A1 (MULTITUDE, published 2022)
